The record followed here is patent US20240270865A1 (INNATE PHARMA, published 2024).

One experiment has as its target T1, CD73 in human serum (human, UniProt P21589 27-574).
T1 sequence: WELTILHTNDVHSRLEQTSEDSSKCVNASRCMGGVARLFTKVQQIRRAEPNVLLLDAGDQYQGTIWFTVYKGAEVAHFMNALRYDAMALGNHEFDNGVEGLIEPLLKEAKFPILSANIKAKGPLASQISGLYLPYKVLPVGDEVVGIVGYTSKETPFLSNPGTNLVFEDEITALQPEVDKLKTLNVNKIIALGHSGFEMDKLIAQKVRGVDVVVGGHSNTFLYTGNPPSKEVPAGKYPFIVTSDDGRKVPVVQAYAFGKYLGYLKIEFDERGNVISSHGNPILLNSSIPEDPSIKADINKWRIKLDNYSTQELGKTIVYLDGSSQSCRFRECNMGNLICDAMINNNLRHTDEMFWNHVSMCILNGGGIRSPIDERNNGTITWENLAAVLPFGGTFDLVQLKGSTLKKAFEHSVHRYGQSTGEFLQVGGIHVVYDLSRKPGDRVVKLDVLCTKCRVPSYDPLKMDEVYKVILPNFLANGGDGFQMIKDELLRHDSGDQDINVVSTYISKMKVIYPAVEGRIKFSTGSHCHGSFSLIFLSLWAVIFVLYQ
The experiment in a line: cell-based or functional assay.

Experiment [1] deals with T2, human CD73 expressed on cells (human, UniProt P21589 27-549).
T2 sequence: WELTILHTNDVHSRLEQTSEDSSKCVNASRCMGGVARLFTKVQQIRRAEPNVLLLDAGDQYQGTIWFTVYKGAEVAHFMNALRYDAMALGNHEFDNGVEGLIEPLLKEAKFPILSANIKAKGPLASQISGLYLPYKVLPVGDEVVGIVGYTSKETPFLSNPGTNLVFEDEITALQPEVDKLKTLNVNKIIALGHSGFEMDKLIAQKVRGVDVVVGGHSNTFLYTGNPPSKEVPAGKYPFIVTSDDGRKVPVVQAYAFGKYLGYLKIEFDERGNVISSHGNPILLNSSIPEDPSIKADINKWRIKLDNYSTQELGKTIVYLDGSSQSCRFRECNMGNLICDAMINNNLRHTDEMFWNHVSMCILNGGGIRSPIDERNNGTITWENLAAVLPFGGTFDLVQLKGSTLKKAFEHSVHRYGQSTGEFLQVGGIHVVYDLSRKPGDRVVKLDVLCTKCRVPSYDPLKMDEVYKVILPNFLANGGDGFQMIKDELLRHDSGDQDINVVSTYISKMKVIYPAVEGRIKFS
As to the kind of experiment: cell-based or functional assay.

B1: 2H4+2L1 anti-CD73 antibody (antibody, human IgG1, kappa, V domains shown)
VH: QIQLVQSGAEVKKPGASVKVSCKASGYTFASYNMYWVRQAPGQRLEWIGYIDPYNGGSSYNQKFKGRVTLTRDKSASTAYMELSSLRSEDTAVYYCARGYNNYKAWFAYWGQGTLVTVSS
VL: DIQMTQSPSSLSASVGDRVTITCKASQSVTNDVAWYQQKPGKAPKLLIYYASNRYTGVPSRFSGSGYGTDFTFTISSLQPEDIATYYCQQDYSSLTFGQGTKLEIKR
With B1, the “enzymatic inhibition, in vitro assay on human serum (IC50)” value with CD73 in human serum worked out at 0.0123 µg/mL. Also, in experiment [1], the “enzymatic inhibition, in vitro assay on A375 tumor cells (IC50)” value was determined as 0.034 µg/mL; the “enzymatic inhibition, in vitro assay on MDA-MB231 tumor cells (IC50)” value was 0.127 µg/mL; the “reversion of AMP inhibited T cell proliferation on CD4+ T cells (IC50)” value amounted to 0.0081 µg/mL; the “reversion of AMP inhibited T cell proliferation on CD8+ T cells (IC50)” value came out at 0.0077 µg/mL.
